This is an account of results in US20230151437A1 (Harvard, published 2023).

B1: iPAK4 (fusion of the catalytic domain of the Pak4 kinase and the 38 amino acid iBox domain of its inhibitor Inka1) (other)
chain: MDYKDDDDKSGSEAEDWTAALLNRGRSRQPLVLGDNCFADLVHNWMELPEEFPAAPAVPGPPGPRSPQREPQRVSHEQFRAALQLVVDPGDPRSYLDNFIKIGEGSTGIVCIATVRSSGKLVAVKKMDLRKQQRRELLFNEVVIMRDYQHENVVEMYNSYLVGDELWVVMEFLEGGALTDIVTHTRMNEEQIAAVCLAVLQALSVLHAQGVIHRDIKSDSILLTHDGRVKLSDFGFCAQVSKEVPRRKSLVGTPYWMAPELISRLPYGPEVDIWSLGIMVIEMVDGEPPYFNEPPLKAMKMIRDNLPPRLKNLHKVSPSLKGFLDRLLVRDPAQRATAAELLKHPFLAKAGPPASIVPLMRQNRTR
notes: also called ibox-PAK4cat; CMV::iPAK4
B2: HaloTag-iPAK4 (other)
chain: MIGTGFPFDPHYVEVLGERMHYVDVGPRDGTPVLFLHGNPTSSYVWRNIIPHVAPTHRCIAPDLIGMGKSDKPDLGYFFDDHVRFMDAFIEALGLEEVVLVIHDWGSALGFHWAKRNPERVKGIAFMEFIRPIPTWDEWPEFARETFQAFRTTDVGRKLIIDQNVFIEGTLPMGVVRPLTEVEMDHYREPFLNPVDREPLWRFPNELPIAGEPANIVALVEEYMDWLHQSPVPKLLFWGTPGVLIPPAEAARLAKSLPNCKAVDIGPGLNLLQEDNPDLIGSEIARWLSTLEISGEPTTSGSEAEDWTAALLNRGRSRQPLVLGDNCFADLVHNWMELPEEFPAAPAVPGPPGPRSPQREPQRVSHEQFRAALQLVVDPGDPRSYLDNFIKIGEGSTGIVCIATVRSSGKLVAVKKMDLRKQQRRELLFNEVVIMRDYQHENVVEMYNSYLVGDELWVVMEFLEGGALTDIVTHTRMNEEQIAAVCLAVLQALSVLHAQGVIHRDIKSDSILLTHDGRVKLSDFGFCAQVSKEVPRRKSLVGTPYWMAPELISRLPYGPEVDIWSLGIMVIEMVDGEPPYFNEPPLKAMKMIRDNLPPRLKNLHKVSPSLKGFLDRLLVRDPAQRATAAELLKHPFLAKAGPPASIVPLMRQNRTR
notes: also called HT-iPAK4; CMV::HT-iPAK4

Data set [1] concerns the molecule itself. Description: time-lapse fluorescence microscopy of intracellular self-assembly in cultured rat hippocampal neurons.
Data set [2] concerns the target B1. As to the kind of experiment: co-expression in HEK cells; fluorescence imaging of HT-iPAK4 incorporated into iPAK4 assemblies. The method, then: To assess the suitability of iPAK4 assemblies as a recording medium, a detailed characterization of their nucleation and growth was performed. CMV::iPAK4 (90%), CMV::eGFP-iPAK4 (5%), and CMV::HT-iPAK4 (5%) were co-expressed in HEK cells using lentiviral transduction, and JF₆₆₉ was added to the medium to label the HT. Time-lapse video microscopy was recorded over a 13 hour interval starting 1 hour after transfection, and over 43 hours starting 20 hours after transfection. The fluorescence of the cytoplasm and the growth of individual assemblies was then tracked. Initially, green (eGFP) and red (HT-JF₆₆₉) fluorescence accumulated in the cytoplasm. Upon nucleation, assemblies grew quickly (˜0.5 μm/min) at first, while the cytoplasmic fluorescence dropped. This phase typically lasted approximately 1 h. The assemblies then transitioned to slower linear growth (FIG. 1E). […] A simple mass-action kinetic model predicted the two-phase growth profiles and quantitatively reproduced the observed growth profiles (Calculation 1, FIGS. 7A-7E).

Turning to B1, the binding result in data set [1] is given as “binds”.
B2: the binding result in data set [2] was “binds”.
